Assay results published in PMC9706586.

Tests used:
FcγRI = FcγRI (UniProt P12314); test: SPR; Biacore T200; CM5 chip with immobilised anti-His antibody captures the His-tagged receptor or antigen; serial dilutions of antibody injected (120 s binding, 240 s dissociation, 30 µL/min); 20 °C; 1:1 binding kinetic model or steady-state affinity model
CD89 (human) = CD89 (human) (UniProt P24071); test: as above
CD20 (human) = CD20 (human) (UniProt P11836); test: SPR; Biacore T200, CM5 chip with immobilised anti-His antibody, 20 °C; His-tagged receptor or antigen captured; serial dilutions of anti-CD20 X-body, IgG or IgA injected (120 s binding, 240 s dissociation, 30 µL/min); 1:1 binding kinetic model or steady-state affinity model
Sequence of CD20 (human) (P11836 whole entry): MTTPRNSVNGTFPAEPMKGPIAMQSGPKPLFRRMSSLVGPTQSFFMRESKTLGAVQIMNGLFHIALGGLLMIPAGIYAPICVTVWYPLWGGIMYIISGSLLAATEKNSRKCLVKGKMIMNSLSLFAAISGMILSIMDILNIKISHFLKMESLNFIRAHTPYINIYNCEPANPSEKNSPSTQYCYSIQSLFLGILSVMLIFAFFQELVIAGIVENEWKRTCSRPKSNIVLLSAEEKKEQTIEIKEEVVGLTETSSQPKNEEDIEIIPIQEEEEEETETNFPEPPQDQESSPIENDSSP

FcγRIIa^H131 (human) = FcγRIIa^H131 (human) (UniProt P12318); test: as above
Sequence of FcγRIIa^H131 (human) (P12318 34-217): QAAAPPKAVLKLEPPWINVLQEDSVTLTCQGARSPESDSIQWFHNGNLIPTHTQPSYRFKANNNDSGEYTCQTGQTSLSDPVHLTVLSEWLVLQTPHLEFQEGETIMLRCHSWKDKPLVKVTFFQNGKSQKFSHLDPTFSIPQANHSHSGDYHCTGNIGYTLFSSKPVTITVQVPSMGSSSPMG

FcγRIIIa^F158 (human) = FcγRIIIa^F158 (human) (UniProt P08637); test: as above
Sequence of FcγRIIIa^F158 (human) (P08637 17-208): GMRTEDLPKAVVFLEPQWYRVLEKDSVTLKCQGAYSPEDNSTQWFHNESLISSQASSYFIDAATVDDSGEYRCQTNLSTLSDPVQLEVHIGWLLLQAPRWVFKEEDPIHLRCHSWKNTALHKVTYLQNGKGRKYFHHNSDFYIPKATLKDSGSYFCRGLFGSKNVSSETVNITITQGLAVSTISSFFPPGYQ

FcγRIIb (human) = FcγRIIb (human) (UniProt P31994); test: as above
Sequence of FcγRIIb (human) (P31994 43-217): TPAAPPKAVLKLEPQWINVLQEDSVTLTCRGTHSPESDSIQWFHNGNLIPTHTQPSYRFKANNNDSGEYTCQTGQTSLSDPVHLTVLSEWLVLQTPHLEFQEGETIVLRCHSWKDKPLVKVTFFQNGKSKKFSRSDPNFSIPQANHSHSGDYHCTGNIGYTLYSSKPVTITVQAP

FcγRIIIa^V158 (human) = test: as above
FcRn = FcRn (UniProt P55899); test: as above

Sequence of FcγRI (P12314 16-374): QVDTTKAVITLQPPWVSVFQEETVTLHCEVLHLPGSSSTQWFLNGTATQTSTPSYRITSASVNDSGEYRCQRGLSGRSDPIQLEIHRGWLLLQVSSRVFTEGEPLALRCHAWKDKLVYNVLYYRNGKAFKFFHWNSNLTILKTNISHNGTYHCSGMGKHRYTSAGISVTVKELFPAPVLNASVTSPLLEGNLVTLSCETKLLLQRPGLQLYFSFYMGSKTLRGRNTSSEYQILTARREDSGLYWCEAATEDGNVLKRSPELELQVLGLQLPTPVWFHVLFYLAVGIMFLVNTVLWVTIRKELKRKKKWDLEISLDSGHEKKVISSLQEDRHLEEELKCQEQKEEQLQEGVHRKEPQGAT
Sequence of CD89 (human) (P24071 22-287): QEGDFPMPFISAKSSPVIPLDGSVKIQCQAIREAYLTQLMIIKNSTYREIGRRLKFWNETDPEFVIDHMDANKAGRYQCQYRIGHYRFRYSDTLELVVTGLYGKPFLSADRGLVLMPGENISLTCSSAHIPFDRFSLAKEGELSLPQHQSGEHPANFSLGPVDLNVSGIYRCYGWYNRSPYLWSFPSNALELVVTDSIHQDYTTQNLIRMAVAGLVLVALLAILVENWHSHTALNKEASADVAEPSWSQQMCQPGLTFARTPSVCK

trastuzumab IgA (antibody)
Kd (FcγRI): 272 nM | Kd (CD89 (human)): 58.8 nM

Rituximab IgA (antibody)
Kd (CD20 (human)): 6.71 nM

trastuzumab IgG (antibody)
Kd (FcγRI): 113 nM

Rituximab IgG (antibody)
Kd (FcγRIIa^H131 (human)): 0.0548 nM | Kd (FcγRIIIa^F158 (human)): 0.0663 nM | Kd (FcγRIIb (human)): 0.00277 nM | Kd (FcγRIIIa^V158 (human)): 0.0603 nM | Kd (FcRn): 0.0391 nM | Kd (CD20 (human)): 3.74 nM
